# Experimental data from patent US20260070987A1.
# Changes are numbered by the printed parent chain. Names may count otherwise.
# B1: equine IgG1 G426Q (antibody, part only; not given: variable domains, not shown: another chain or arm of the molecule)
# constant: ASTTAPKVFALAPGCGTTSDSTVALGCLVSGYFPEPVKVSWNSGSLTSGVHTFPSVLQSSGFYSLSSMVTVPASTWTSETYICNVVHAASNFKVDKRIEPIPDNHQKVCDMSKCPKCPAPELLGGPSVFIFPPNPKDTLMITRTPEVTCVVVDVSQENPDVKFNWYMDGVEVRTATTRPKEEQFNSTYRVVSVLRIQHQDWLSGKEFKCKVNNQALPQPIERTITKTKGRSQEPQVYVLAPHPDELSKSKVSVTCLVKDFYPPEINIEWQSNGQPELETKYSTTQAQQDSDGSYFLYSKLSVDRNRWQQGTTFTCQVMHEALHNHYTQKNVSKNPGK
# B2: equine IgG1 M428A (antibody, part only; not given: variable domains, not shown: another chain or arm of the molecule)
# constant: B1 constant with Q316G, M318A
# B3: equine IgG1 M428C (antibody, part only; not given: variable domains, not shown: another chain or arm of the molecule)
# constant: B1 constant with Q316G, M318C
# B4: equine IgG1 G426V (antibody, part only; not given: Variable domains, not shown: another chain or arm of the molecule)
# constant: B1 constant with Q316V
# B5: equine IgG1 M428G (antibody, part only; not given: variable domains, not shown: another chain or arm of the molecule)
# constant: B1 constant with Q316G, M318G
# B6: equine IgG1 T286C (antibody, part only; not given: variable domains, not shown: another chain or arm of the molecule)
# constant: B1 constant with T174C, Q316G
# B7: equine IgG1 T286A (antibody, part only; not given: Variable domains, not shown: another chain or arm of the molecule)
# constant: B1 constant with T174A, Q316G
# B8: equine IgG1 G426T (antibody, part only; not given: variable domains, not shown: another chain or arm of the molecule)
# constant: B1 constant with Q316T
# B9: equine IgG1 M428K (antibody, part only; not given: variable domains, not shown: another chain or arm of the molecule)
# constant: B1 constant with Q316G, M318K
# B10: equine IgG1 N434C (antibody, part only; not given: variable domains, not shown: another chain or arm of the molecule)
# constant: B1 constant with Q316G, N324C
# B11: equine IgG1 M428V (antibody, part only; not given: variable domains, not shown: another chain or arm of the molecule)
# constant: B1 constant with Q316G, M318V
# B12: equine IgG1 G426Y (antibody, part only; not given: variable domains, not shown: another chain or arm of the molecule)
# constant: B1 constant with Q316Y
# B13: equine IgG1 M428W (antibody, part only; not given: variable domains, not shown: another chain or arm of the molecule)
# constant: B1 constant with Q316G, M318W
# B14: equine IgG1 M428F (antibody, part only; not given: variable domains, not shown: another chain or arm of the molecule)
# constant: B1 constant with Q316G, M318F
# B15: equine IgG1 M428L (antibody, part only; not given: variable domains, not shown: another chain or arm of the molecule)
# constant: B1 constant with Q316G, M318L
# B16: equine IgG1 G426S (antibody, part only; not given: variable domains, not shown: another chain or arm of the molecule)
# constant: B1 constant with Q316S
# B17: equine IgG1 M428E (antibody, part only; not given: variable domains, not shown: another chain or arm of the molecule)
# constant: B1 constant with Q316G, M318E
# B18: equine IgG1 G426R (antibody, part only; not given: variable domains, not shown: another chain or arm of the molecule)
# constant: B1 constant with Q316R
# B19: equine IgG1 M428H (antibody, part only; not given: variable domains, not shown: another chain or arm of the molecule)
# constant: B1 constant with Q316G, M318H
# B20: equine IgG1 M428I (antibody, part only; not given: variable domains, not shown: another chain or arm of the molecule)
# constant: B1 constant with Q316G, M318I
# B21: equine IgG1 N434E (antibody, part only; not given: variable domains, not shown: another chain or arm of the molecule)
# constant: B1 constant with Q316G, N324E
# B22: equine IgG1 M428N (antibody, part only; not given: Variable domains, not shown: another chain or arm of the molecule)
# constant: B1 constant with Q316G, M318N
# B23: equine IgG1 M428Q (antibody, part only; not given: Variable domains, not shown: another chain or arm of the molecule)
# constant: B1 constant with Q316G, M318Q
# B24: equine IgG1 G426W (antibody, part only; not given: variable domains, not shown: another chain or arm of the molecule)
# constant: B1 constant with Q316W
# B25: equine IgG1 M428T (antibody, part only; not given: variable domains, not shown: another chain or arm of the molecule)
# constant: B1 constant with Q316G, M318T
# B26: equine IgG1 M428Y (antibody, part only; not given: variable domains, not shown: another chain or arm of the molecule)
# constant: B1 constant with Q316G, M318Y
# B27: equine IgG1 N434A (antibody, part only; not given: Variable domains, not shown: another chain or arm of the molecule)
# constant: B1 constant with Q316G, N324A
# B28: equine IgG7 wild-type (antibody, part only; not given: variable domains; allotype unstated, not shown: another chain or arm of the molecule)
# constant: ASTTAPKVFPLASHSAATSGSTVALGCLVSSYFPEPVTVSWNSGALTSGVHTFPSVLQSSGLYSLSSMVTVPASSLKSQTYICNVAHPASSTKVDKKIVIKECGGCPTCPECLSVGPSVFIFPPKPKDVLMISRTPTVTCVVVDVGHDFPDVQFNWYVDGVETHTATTEPKQEQNNSTYRVVSILAIQHKDWLSGKEFKCKVNNQALPAPVQKTISKPTGQPREPQVYVLAPHRDELSKNKVSVTCLVKDFYPTDIDIEWKSNGQPEPETKYSTTPAQLDSDGSYFLYSKLTVETNRWQQGTTFTCAVMHEALHNHYTEKSVSKSPGK
# B29: equine IgG7 K311M mutant (antibody, part only; not given: variable domains, not shown: another chain or arm of the molecule)
# constant: B28 constant with K190M
# B30: equine IgG7 A426D mutant (antibody, part only; not given: variable domains, not shown: another chain or arm of the molecule)
# constant: B28 constant with A307D
# B31: equine IgG7 K311S mutant (antibody, part only; not given: variable domains, not shown: another chain or arm of the molecule)
# constant: B28 constant with K190S
# B32: equine IgG7 A426C mutant (antibody, part only; not given: variable domains, not shown: another chain or arm of the molecule)
# constant: B28 constant with A307C
# B33: equine IgG7 A426I mutant (antibody, part only; not given: variable domains, not shown: another chain or arm of the molecule)
# constant: B28 constant with A307I
# B34: equine IgG7 K311A mutant (antibody, part only; not given: Variable domains, not shown: another chain or arm of the molecule)
# constant: B28 constant with K190A
# B35: equine IgG7 K311E mutant (antibody, part only; not given: variable domains, not shown: another chain or arm of the molecule)
# constant: B28 constant with K190E
# B36: equine IgG7 K311G mutant (antibody, part only; not given: variable domains, not shown: another chain or arm of the molecule)
# constant: B28 constant with K190G
# B37: equine IgG7 A426P mutant (antibody, part only; not given: variable domains, not shown: another chain or arm of the molecule)
# constant: B28 constant with A307P
# B38: equine IgG7 K311R mutant (antibody, part only; not given: variable domains, not shown: another chain or arm of the molecule)
# constant: B28 constant with K190R
# B39: equine IgG7 K311C mutant (antibody, part only; not given: variable domains, not shown: another chain or arm of the molecule)
# constant: B28 constant with K190C
# B40: equine IgG7 A426L mutant (antibody, part only; not given: Variable domains, not shown: another chain or arm of the molecule)
# constant: B28 constant with A307L
# B41: equine IgG7 A426G mutant (antibody, part only; not given: variable domains, not shown: another chain or arm of the molecule)
# constant: B28 constant with A307G
# B42: equine IgG7 K311Y mutant (antibody, part only; not given: variable domains, not shown: another chain or arm of the molecule)
# constant: B28 constant with K190Y
# B43: equine IgG7 K311D mutant (antibody, part only; not given: Variable domains, not shown: another chain or arm of the molecule)
# constant: B28 constant with K190D
# B44: equine IgG7 A426K mutant (antibody, part only; not given: variable domains, not shown: another chain or arm of the molecule)
# constant: B28 constant with A307K
# B45: equine IgG7 A426M mutant (antibody, part only; not given: variable domains, not shown: another chain or arm of the molecule)
# constant: B28 constant with A307M
# B46: equine IgG7 K311V mutant (antibody, part only; not given: variable domains, not shown: another chain or arm of the molecule)
# constant: B28 constant with K190V
# B47: equine IgG7 K311Q mutant (antibody, part only; not given: Variable domains, not shown: another chain or arm of the molecule)
# constant: B28 constant with K190Q
# B48: equine IgG7 K311W mutant (antibody, part only; not given: variable domains, not shown: another chain or arm of the molecule)
# constant: B28 constant with K190W
# B49: equine IgG7 K311L mutant (antibody, part only; not given: variable domains, not shown: another chain or arm of the molecule)
# constant: B28 constant with K190L
# B50: equine IgG7 K311I mutant (antibody, part only; not given: variable domains, not shown: another chain or arm of the molecule)
# constant: B28 constant with K190I
# B51: equine IgG7 K311H mutant (antibody, part only; not given: Variable domains, not shown: another chain or arm of the molecule)
# constant: B28 constant with K190H
# B52: equine IgG7 A426F mutant (antibody, part only; not given: variable domains, not shown: another chain or arm of the molecule)
# constant: B28 constant with A307F
# B53: equine IgG7 A426N mutant (antibody, part only; not given: Variable domains, not shown: another chain or arm of the molecule)
# constant: B28 constant with A307N
# B54: equine IgG7 K311F mutant (antibody, part only; not given: variable domains, not shown: another chain or arm of the molecule; small tags and cut ends)
# constant: B28 constant with K190F
# B55: equine IgG7 A426E mutant (antibody, part only; not given: variable domains, not shown: another chain or arm of the molecule)
# constant: B28 constant with A307E
# B56: equine IgG7 A426H mutant (antibody, part only; not given: variable domains, not shown: another chain or arm of the molecule)
# constant: B28 constant with A307H
# B57: equine IgG7 K311T mutant (antibody, part only; not given: variable domains, not shown: another chain or arm of the molecule)
# constant: B28 constant with K190T
# B58: equine IgG7 K311N mutant (antibody, part only; not given: variable domains, not shown: another chain or arm of the molecule)
# constant: B28 constant with K190N
# Molecular target: equine FcRn (large alpha subunit p51) / equine beta-2-microglobulin complex, biotinylated (equine) (UniProt P30441)
# Sequence of UniProt P30441 (P30441 21-118, one chain of several): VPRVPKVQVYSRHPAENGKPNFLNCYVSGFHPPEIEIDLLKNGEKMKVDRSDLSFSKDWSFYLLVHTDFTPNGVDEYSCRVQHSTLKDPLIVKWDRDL
# Assay: SPR (Biacore), pH 6
row,Binder,Kd [nM]
1,B1,9.01
2,B2,76
3,B3,47.5
4,B4,8.79
5,B5,48.8
6,B6,35.4
7,B7,18.5
8,B8,9.73
9,B9,28.7
10,B10,42.6
11,B11,65.8
12,B12,11.9
13,B13,31.9
14,B14,17.3
15,B15,8.76
16,B16,8.97
17,B17,43.9
18,B18,10.3
19,B19,33.1
20,B20,28
21,B21,50.6
22,B22,51.6
23,B23,32.9
24,B24,14.7
25,B25,34.8
26,B26,17
27,B27,6.54

# Molecular target: equine FcRn (large alpha subunit p51) in complex with equine beta-2-microglobulin (equine) (UniProt F6XZ61)
# Sequence of UniProt F6XZ61 (F6XZ61 entry or part of it, one chain of several): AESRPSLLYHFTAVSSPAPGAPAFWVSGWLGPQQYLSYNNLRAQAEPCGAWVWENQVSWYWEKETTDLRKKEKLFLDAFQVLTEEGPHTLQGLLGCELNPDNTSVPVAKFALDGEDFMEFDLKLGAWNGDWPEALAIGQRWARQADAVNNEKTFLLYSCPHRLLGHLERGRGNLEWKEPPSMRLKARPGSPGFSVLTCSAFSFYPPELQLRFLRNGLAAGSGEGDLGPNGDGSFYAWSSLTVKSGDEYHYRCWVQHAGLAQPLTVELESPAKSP
# Assay: SPR (Biacore), pH 6
row,Binder,Kd [nM]
1,B28,21.7
2,B29,10.4
3,B30,18.9
4,B31,27.6
5,B32,14.4
6,B33,12.6
7,B34,24.4
8,B35,60
9,B36,20.9
10,B37,23.2
11,B38,11.8
12,B39,15.9
13,B40,15.6
14,B41,13.6
15,B42,18.9
16,B43,34.1

row,Binder,Kd [nM]
1,B44,17.8
2,B45,22.7
3,B46,21.3
4,B47,39.5
5,B48,22.1
6,B49,17.3
7,B50,15.1
8,B51,19
9,B52,13.2
10,B53,15.8
11,B54,20.5
12,B55,13.4
13,B56,18.4
14,B57,19.4
15,B58,38
